From the nanobody polyreactivity screen of Harvey et al. (2022)

assay: yeast display, Sf9 membrane polyspecificity reagent, FACS + sequencing; frameworks hold sequencing errors
Outline: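 Galactose induction of a Saccharomyces cerevisiae BJ5465 synthetic nanobody display library ran 36–48 hours. The cells were then stained for 1 hour at 4 °C with 10% biotinylated, detergent-solubilized Sf9 membrane reagent, pulled down on streptavidin microbeads and FACS-sorted into low and high (top ~1%) gates on expression and reagent-binding fluorescence. Labels for polyreactivity follow the gate of origin.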

Sequence | polyreactivity (PSR sort gate)
QVQLVESGGGLVQAGGSLRLSCAASGSIFPPYAMGWYRQAPGKERELVASISNSGGSTYYADSVKGRFTISRDNAKNTVYLQMNSLKPEDTAVYYCAAYAVVSPSFTYGYWGQGTQVTVSS | high polyreactivity
QVQLVESGGGLVQAGGSLRLSCAASGITFKRYAMGWYRPAPGKERELVAAITISAGSTYYADSVKGRFTLSRDNAKNTVYLQMNSLKPEDTAVYYCAAESYGSWYYYWGQGTQVTVSS | high polyreactivity
QVQLQESGGGLVKAGGTPRLSCAASYNIFPDSVMCWYRQAPGTERELVATIGFVATTNYADSVKGRFTISRDNAKNTLYLQMNSLNPEDTAVYYCAAVPLNYEYFCYWGEGTQVTVSS | low polyreactivity
QVQLVESGGGLVQAGGSLRLSCAASGLIYTPYAMGWYRQAPGKERELVAAINYGGSRTYYADSVKGRFTISRDNAKNTVYLQMNSLKQEDTAVYYCNKPGNYVWRRSWDFDYWGQGTQVTVSW | high polyreactivity
QVQLVESGGGLVQAGGSLRLRCAASGRIFVYNAMGWYRQAPGKERELVAAISRSGSSTYYADSVKGRFTISRDNAKNTVYLQMYSLKPEDTSVYYCAARTFSIAYYKYGYWGQGTHVTVSS | high polyreactivity
QVQLEESGGGLVQAGGSLRLSCAASGRISAKYAMGWYRKAPGKERELVASISWSGGSTYYADSVKGRFTISRDNAKNTVYLQMNSLKPEDTAVYYCAADLTQQRGVRGMDYWGQGTQVTVSS | low polyreactivity
QVQLVESGGGLVQAGGSLRLSCAASGGNFRYYAMGWYRQAPGKERELVAAITRGGRTSYADSVKGRFTISRDNAKNTVYLQMNSLKPEDSAVYYCNAKRPYQEHNSYGYWGQGSQVTVSS | high polyreactivity
QVQLVESGGGLVQAGGSLRLSCAASGSIFPANAMGWYRQPPGKERELVAAISRRGGNTYYADSVKGRFTISRDNAKNTVYLQMNSLKPEDTAVYYCAAYYFYRRYDYWGQGTQVTVSS | high polyreactivity
QVQLVESGGGLVQAGGSLRLSCAASGRTFNYYAMGWYRQAPGKERESVAAISWRGGSTYYADSVKGRFTISRDNAKNTVYLQMNSLKPEDTAVYYCNKYFSWRPYSYYYWGQGTQVTVSS | high polyreactivity
QVQLVESGGGLVQAGGSLRLSCAASGRIFRYYAMGWYRQAPGKERELVASIARRGGSTNYADSVKGRFTISRDNAKNTVYVQMNSLKPEDTAVYYINAENWSPRGLYNYWGQGTQVTLSS | high polyreactivity
QVQLVESGGGLVQAGGSLRLICAASGRIFGVYVMGLYRPAPGKERELVAAISWSGSHTYYADSVKGRFTISRDNAKNTVYLQMNSLKPEDTAVYYCNADSYPEYTGPGLDWYDYWGQGTQVTVSS | low polyreactivity
QVQLVESGGGLVQAGGTLRLSCAASGRIISYNPMGWYRAAAGKEMELVAPINWGGGSTYYADSVKGRFTISRDNAKNTVYLQMNSLKPEDTAVYYCNADSNWYYQWNYYGLYDYWGQGTQVTVSS | low polyreactivity
QVQLVESGGGLVQAGGSLRLSCAASGFTFGVYAMGWYRQAPGKERELVAAITWGDGSTYYADSVKGRFTISRDNAKNTVYLQMYSLKPEDTAVYYCIAVTRRHIYYYWGQGTQVTVSS | high polyreactivity
QVQLVESGGGLVQAGGSLRLSCDASGFIFDEYAMGWYRPAPGEERELVAAINWRGGSTYYADSVKGRFTISRDNAKNTVYLQMNSLKPEDTAVYYCAARNVYVWYDYWGQGTQVTVSS | low polyreactivity
QVQLVESGGGLVQAGGSLRLSCAASGFTFPANDMGWYIQAPGKERELVATITWSGGNTYYADSVKGRFTISRDNAKNTVYLQMNSLKPEDTAVYYCAKDYDPYHEQQSSEHDDYWGQGTQVTVSS | low polyreactivity
QVQLVESGGGLVQAGGSLRLSCAASGLTFKTYAMGWYRQAPGKERELVAAITRNGGSTYYADSVKGRFTISRDNAKNTVYLQMNSLKPEDTAVYYCAARRAYDNRHDYWGQGTQVTVSS | high polyreactivity
QVQLVESGGGLVQAGGSLRLSCAASGRTIGYNAMGWYRQAPGKERELVAAITRSAGITYYADSVKGRFTISRDNAKNTVYLQLNSLKPEDTAVYYCNKRVVYRSSLFDYWGQGTQVTVSS | low polyreactivity
QVQLVESGGGLVQAGGSLRLSCAASGFTFPNNAMGWYRQAPGKERELVAAITWSGGSTYADSVKGRFTISRDNAKNTVYLQMNSLKPEDTAVYYCNTRGTYLSKTLPSAYDYWGQGTQVTVSS | low polyreactivity
QVQLVESGGGLVQAGGSLRLSCAASGSTFLYNTMGWYRPAPGKERELVAAITSAGSTNYADSVKGRFTISRDNAKNTVYLQMNSLKPEDTAVYYCAAVGPTSGARYTYDYWGQGTQVTVSS | low polyreactivity
QVQLVESGGGLVQAGGSLRLSCAASGSTFILYAMGWYRQAPGKERELVAAISSDGSTYYADSVKGRFTISRDNAKNTVYLQMNSLKPEDTAVYYCAADSDTFYYTGYDYDYWGQGTQVTVSS | low polyreactivity
QVQLVESGGGVVQAGGSLRLSCAASGRIFRINGMGWYRQAPGKEREFVAAITSGGGTYYADSVKGRFTITRDNAKNTVYLQMNSLKPEDTAVYYCAAPSYRTRYYYWGQGTQVTVSS | high polyreactivity
QVQLVESGGGLVQAGGSLRLSCAASGITFSGNAKGWYRQAPGKERELDAAITFSGGITYYADSVKGRFTISRDNAKNTVFLQMNSLKPEDTAVYYSATDPIGGWTRPQRYGDDYWGQGTQVTVSS | low polyreactivity

Sequence | polyreactivity (PSR sort gate)
QVQLVESGGGIVQAGGSLRLSCAASGFTFDYYAMGWYRQAPGKERELVAAISWRGTTTYYADSVKGRFTISRDNAKNTVYLQMNSLKPEDTAVYYCAADSLFGHYDYWGQGTQVTVSS | low polyreactivity
QVQLVESGGGLVQAGGSLRLSCAASGSTLSVYAMGWYRQAPGKERELVAVISRSGGSTYYADSVKGRFTISRDNAKNTVYLQMNSLKPEDTAVYYCAARGRRTGDYDYWGQGTQVTVSS | high polyreactivity
QVQLVESGGGLVQAGGSLRLSCAASGSIFRYYTMGWYRQAPGKERELVAAISWSGGSTYYADSVKGRFTISRDNAKNTVYLQMNSLKPEDTPVYYCNAVSFAYNPYSGTYDYRGQGTQVTVSS | high polyreactivity
QVQLVESGGGLVQAGGSLRLSSPDSGYIFLPYTMGWYRQAHGKERELVASITWRGTNTYYADSVKGRFTISRDNAKNTVYLQMNSLKPEDTAGYYCTKVPTYWDPNYYYWGQGTQVTVSS | high polyreactivity
QVQLVESGGGLVQAGGSLRLSCAASGSIFIRNAMGWYRQAPGKERELVAAITSRGGSRYYADSVKGRFTISRDNAKNTVYLQMNSLKPEDTSVYYCARRYYGLYDYWGQGTQVTVSS | low polyreactivity
QVHLVESGGGLVQAGGSLRLSCSASGRTFPKYAMGWYRQAPGKERELVAAINKSGGSRYYADSVKGRFTISRDYAKNTVYLQMNSLKPEDTAVYYCAADWRGWSFFRGDDYWGQGTQVTVSS | high polyreactivity
QVQLVESGGGLGQAGGSLRLSCAASGFTFYYNAMGWYRQAPGKERELVATIRGTGSTNYADSVKGRFTISRDNAKNTVYLQMNSLKTEDTAVYYCDAPVDYQGDYWGQGTQVTVSS | low polyreactivity
QVQLVESGGGLVQAGGSLRLSCAASGRTFSNNVMGWYRQAPGKERELVAAISGRGGRTYYADSVKGRFTISRDNAKNTVYLQMNSLKPEDTAVYYCAAGAYWPDEYWGQGTQVSVSS | high polyreactivity
QVQLVESGGGLVQAGGSLRLSCAASGRIFYYYVMGWYRQAPGKERELVATITKRGGDTYYADSVKGRFTISRDNAKNTVYLQMNSLKPEDTAVYYCAAVYLYYSRSDLYDYWGQGTQVTVSS | low polyreactivity
QVQHVESGGGLVQAGGSLRLSCAASGLTFYDYAMGWYRQAPGKERELVADIDFNGGSTSYADSVKGRFTISRDNAKNTVYLQMNSLKPEDTAVYYCAARIHGSWSFDYWGQGTQVTVSS | low polyreactivity
QVQLVESGGGLVQAGGSLRLSCAASGRIFYFNAMAWYRQAPGKERELVAAISGSGGDTYYADSVKGRFTISRDNAKNTVYLQMNRLKPEETAVYYCAAEVYTWGQGTQVSVSS | low polyreactivity
QVQLVESGGGLVQAGGSLRLSCAASGLTFDANAMGWYIQAPGKEREFVAVISWSDGGTYYADSVKGRFTISRDNAKNTVYLQLNSLKPEDTAVYYCNADFYYVYGNTRRYRYFEMEYWGQGTQVTVSS | low polyreactivity
QVQLVESGGGLDQAGGSLRLSCAASGSTFLHYAMGWYRQAPRKERELVAAISFSGVRTYYADSVKGRFTISRDNAKNTVYLQMNSLKPEDTAVFYCAADGHHADYDYWGQGTQVTVSS | low polyreactivity
QVQLVESGGGLVQAGGSLRLSCAASGSIFSTYAMGWYRQAPGKERELVAAISRSGGSTYYADSVKGRFTISRDNAKNTVFLQMNSLKPEDTAVYYCAKVGRRQRYDYWGQGTQVTVSS | high polyreactivity
QVQLVESGGGLVQAGGSLRLSCAASGYTFRYNAMGWYRQAPGKERELVAAISSSGGRTYYADSVKGRFTISRDYAKNTVYLQMNSLKPEDTAVYYCAADSSVKYWRYQAAYDYWGQGTQVTVSS | high polyreactivity
QVQLVESGGGLVQAGGSLRLSCAASGFTFYYYMGCYRQAPGKERELVAAITSGDTTYYADSVKGRFTISRDNAKNTVYLQMNSLKPEDTAVYYCNVDQAIYRWVPWEMDYWGQGTQVTVSS | low polyreactivity
QVQLVESGGGLVQAGGSLRLSCAASGIIFGGYAMGWYRQAPGKERELVASITYDGGSTSYEDSVKGRFTISRDNAKNTVYLQMNSLKPEDTAVYYCNAELFSVNGYDYWGQGTQVTVSS | low polyreactivity
QVQLVESGGGLVQAGGSLRLSCAASGRTFSYYAMGWYRQAPGKERELVAAISQRGGSTYYADSVKGRFTISRDNAKNTVYLQMNSLKPEDTAVYYCAVLVSRYRYRVLDDYWGQGTQVTVSS | high polyreactivity
QVQLVESGGGIVQAGGSLRLSCDASGNTFKGYAMGWYRQAPGTESELVAAISWSGSSTYYADSLKGRFTISRDNAKNTVYFQLNSLKQEDPAVFSCNRKYLGRYASVYGYGYWGQGTQVTVSS | high polyreactivity
QVQLVESGVGLVQAVGSLRLSCAASGRIFPAYVMGWYRQAPGKERELVATIDNGGGTYYADSVKGRFTISCDNAKYTVYLQMNSLKPEDTAVYYCARDRHVRWGLKRDYWGQGTQVTVSS | low polyreactivity
QVQLVESGGGLVQAGGSLRLSCAASGRIFTTYAMGWYRQAPGKERELVAAISRSGGSTYYADSVKGRFTISRDNAKNTVYLQMTSLNPEDTAVYYCAAVPTSNSFRSSFYYWGQGTQVTVSS | high polyreactivity
